Data as given in the supplement of paper PMC10567573.

B1: DULLARD (parent)
chain: LVVFTASMEIYGSAVADKLDNSRS
B2: ALDH8A1 (parent)
chain: RVAKKLQSGLVWTNCWLIRELNLP

Variants of: B1
Test: protein stability index of a GFP-peptide fusion (GPS, HEK-293T) (PSI 1-6); higher = more stable
Conditions: c terminus: a fixed tail appended
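Further: lentivirally expressed fusions sorted by FACS into six bins by GFP to DsRed ratio, PSI derived from sequencing read proportions per bin multiplied by bin number.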

Protein stability index of substitutions, site by site:
G12: P 2.37; W 2.26; Q 1.85; E 1.45; F 2.79; V 3.44
V2: A 2.1; C 1.61; G 2.52; T 1.72; I 2.18; Q 1.96; S 2.35; W 3.1; R 2.25; M 2.25; L 1.99; P 2.93
M8: Q 1.49; R 1.9; T 1.82; L 2.01; W 1.05; E 1.83; H 2.98; N 1.65; V 2.73; D 2.65; P 1.18; I 4.57; G 1.31
R23: D 1.75; P 2.61; S 2.05; Q 1.86; E 2.94; H 2.77; F 2.67; K 1.71; V 2.42; T 2.68; G 1.66
A14: T 3.78; R 4.28; N 2.84; V 1.69; Q 1.99; P 1.73
A16: Q 2.02; D 3.11; K 2.89; F 4.14; I 2.93; H 3.11; N 1.46; E 2.34
D20: R 1.2; K 1.88; S 3.14; N 1.6; V 2.63; Q 3.44; A 3.32; P 2.48; C 1.69; L 2.95; Y 2.51; H 1.99
F4: W 3.77; H 2.78; P 3.61; Q 2.78; N 2.4; C 1.08; Y 2.93; R 2.14; K 2.91; E 2.27; D 2.05; A 1.61; G 2.24
S13: D 2.37; R 2.84; G 1.68; P 2.48; E 1.36; I 2.46; A 2.72; C 2.05
V3: Q 2.62; E 2.33; A 2.48; D 3.23; S 1.86; L 1.71; G 2.75; Y 2.68; C 2.03
A6: H 2.33; D 1.47; K 1.41; P 1.43; I 4.3; Y 2.47; E 1.54
K18: Q 2.49; N 2.74; H 1.88; M 2.11; Y 1.55; L 2.77; D 2.94; V 2.79; I 4.09
S7: V 2.27; H 3.69; C 3.12; M 2.8; G 1.24; P 1.93; N 2.14; K 2.07; F 2.06; A 1.85; I 4.7; D 1.55
D17: Y 2.6; R 2.48
S22: K 2.58; E 4.27; G 2.5; P 2.62; D 2.71; A 2.39; T 1.89; Y 2.24; I 2.37
L1: N 2.9; S 1.94; F 2; K 2.09; E 2.25; D 2.44; Y 2.57; G 2.31; P 3.74; A 1.73; H 1.19; C 1.94
E9: W 2.46; F 2.73; A 2.72; L 3.73; P 3.01; C 2.96; D 2.27; R 2.71; V 3
N21: K 3.06; T 2.67; R 2.68; P 3; S 4.01
L19: M 2.41; H 1.54; R 1.87; I 1.62; Y 3.37; F 2.41; E 2.17
I10: Q 1.62; P 2.16; A 1.05; Y 1.92; E 1.5; N 1.98; C 1.75; M 1.28; F 2.94; L 1.34; V 2.24; K 2.05; H 1.44
V15: A 2; E 2.32; D 1.11; R 3.02; H 1.82; N 1.87; S 2.48; L 1.48; G 2.14; I 3.03; Y 1.87
Y11: R 1.88; K 1.51; G 1.97; S 2.13; M 1.56; P 2.01; E 2.44; H 1.58; Q 2.07; I 2.51; N 3.21
S24: T 2.71; E 2.29; C 2.69; Q 2.15; I 1.3; H 2.46; A 2.29
T5: E 2; P 1.66; A 2.22; M 3.54; F 2.49

Variants of: B2
Test: as above
Conditions: c terminus: a fixed tail appended

Protein stability index: each site, then its substitutions
A3: E 3.61; R 2.03; P 3.51; I 3.48; M 3.44; W 2.5; Y 1.16
L10: D 1.51; R 2.47; T 2.97
K4: C 1.05; F 2.22; N 4.07; M 2.82; W 3.14; R 2.29; L 1.98; H 2.45
W12: V 1.67; K 2.27; H 2.37; P 3.58; Q 1.18; E 2.75; T 1.61; S 2.38
N14: I 1.2; F 2.33; L 2.19; Y 1.59; M 2.04; P 2.06; V 1.22; D 2.19; K 2.73
W16: L 1.85; P 1.22; M 3.3; F 2.47; H 1.92; G 1.32; A 2.71; K 2.08; D 1.63; Q 1.03; N 2.1; E 1.43
G9: E 1.72; M 3.32; T 3.22; W 2.58
R1: V 2.44; T 3.94; H 2.09; D 2.04; C 1.74; K 3.98; L 5; N 3.5; P 2.46; F 3.15
T13: E 1.95; K 2.59; H 1.57
V11: D 2.32; E 2.29; L 2.91; P 2.11; W 4.66
L6: K 2.56; C 3.03; T 2.31; A 2.04; P 1.95; M 3.2; E 2.26; Q 2.86
C15: A 2.39; E 1.8; I 2.44; R 3.14; P 2.17; H 3.92; L 2.64; V 2.65
K5: L 3.02; Y 3.1; T 2.88; V 4.01; I 2.13; Q 1.34; M 3.19; H 3.18; C 3.67
Q7: W 2.85; P 2.97; L 4.65; Y 2.48; M 1.85; N 2.29; K 2.17
V2: E 1.9; N 2.49; P 2.08; T 2.33; W 2.54; H 4.07; K 1.36; S 3.15; I 3.68; D 1.92
S8: I 1.71; V 3.65; T 1.94; A 3.67; E 2.9; H 1.63
